Measurements reported in publication PMC10397247.

Key:
Assay in all cases: two-hybrid library CCmax;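 further: natural log of median RNA to DNA barcode read ratio; higher means stronger binding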
4H2466-AA = target: T1, 4H2466-AA
T1 chain: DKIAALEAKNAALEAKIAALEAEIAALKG

4H249-AA = target: T2, 4H249-AA; settings: mean of both orientations
T2 chain: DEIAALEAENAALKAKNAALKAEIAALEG

4H2505-AA = target: T3, 4H2505-AA; settings: mean of both orientations
T3 chain: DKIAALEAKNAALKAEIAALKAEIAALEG

4H2575-AA = target: T4, 4H2575-AA; settings: mean of both orientations
T4 chain: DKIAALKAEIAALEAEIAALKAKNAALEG

4H2592-AA = target: T5, 4H2592-AA; settings: mean of both orientations
T5 chain: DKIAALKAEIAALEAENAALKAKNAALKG

4H2617-AA = target: T6, 4H2617-AA; settings: mean of both orientations
T6 chain: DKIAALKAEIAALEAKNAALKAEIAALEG

4H2642-AA = target: T7, 4H2642-AA; settings: mean of both orientations
T7 chain: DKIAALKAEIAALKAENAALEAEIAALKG

4H2729-AA = target: T8, 4H2729-AA; settings: mean of both orientations
T8 chain: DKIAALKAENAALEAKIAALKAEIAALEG

4H2732-AA = target: T9, 4H2732-AA; settings: mean of both orientations
T9 chain: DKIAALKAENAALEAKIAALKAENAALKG

4H2754-AA = target: T10, 4H2754-AA
T10 chain: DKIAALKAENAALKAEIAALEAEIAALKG

4H2774-AA = target: T11, 4H2774-AA; settings: mean of both orientations
T11 chain: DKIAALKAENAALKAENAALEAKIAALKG

4H2837-AA = target: T12, 4H2837-AA; settings: mean of both orientations
T12 chain: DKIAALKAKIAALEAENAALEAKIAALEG

4H2883-AA = target: T13, 4H2883-AA; settings: mean of both orientations
T13 chain: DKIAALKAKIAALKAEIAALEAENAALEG

4H2931-AA = target: T14, 4H2931-AA; settings: mean of both orientations
T14 chain: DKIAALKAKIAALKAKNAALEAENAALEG

4H2944-AA = target: T15, 4H2944-AA; settings: mean of both orientations
T15 chain: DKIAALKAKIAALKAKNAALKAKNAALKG

4H2949-AA = target: T16, 4H2949-AA; settings: mean of both orientations
T16 chain: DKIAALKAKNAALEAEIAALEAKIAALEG

4H3001-AA = target: T17, 4H3001-AA; settings: mean of both orientations
T17 chain: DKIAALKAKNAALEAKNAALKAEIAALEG

4H3015-AA = target: T18, 4H3015-AA; settings: mean of both orientations
T18 chain: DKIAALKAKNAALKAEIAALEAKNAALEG

4H3073-AA = target: T19, 4H3073-AA; settings: mean of both orientations
T19 chain: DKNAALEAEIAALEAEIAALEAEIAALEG

4H3112-AA = target: T20, 4H3112-AA; settings: mean of both orientations
T20 chain: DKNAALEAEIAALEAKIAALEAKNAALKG

4H317-AA = target: T21, 4H317-AA; settings: mean of both orientations
T21 chain: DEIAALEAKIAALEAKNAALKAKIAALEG

4H3343-AA = target: T22, 4H3343-AA; settings: mean of both orientations
T22 chain: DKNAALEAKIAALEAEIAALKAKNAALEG

4H335-AA = target: T23, 4H335-AA; settings: mean of both orientations
T23 chain: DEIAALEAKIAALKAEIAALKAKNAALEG

4H342-AA = target: T24, 4H342-AA; settings: mean of both orientations
T24 chain: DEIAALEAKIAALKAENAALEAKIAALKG

4H3427-AA = target: T25, 4H3427-AA; settings: mean of both orientations
T25 chain: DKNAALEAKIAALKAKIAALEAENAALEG

4H3438-AA = target: T26, 4H3438-AA; settings: mean of both orientations
T26 chain: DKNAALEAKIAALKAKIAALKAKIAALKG

4H347-AA = target: T27, 4H347-AA; settings: mean of both orientations
T27 chain: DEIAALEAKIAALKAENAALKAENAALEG

4H3606-AA = target: T28, 4H3606-AA; settings: mean of both orientations
T28 chain: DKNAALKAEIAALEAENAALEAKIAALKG

4H3627-AA = target: T29, 4H3627-AA
T29 chain: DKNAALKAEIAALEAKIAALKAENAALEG

4H3655-AA = target: T30, 4H3655-AA; settings: mean of both orientations
T30 chain: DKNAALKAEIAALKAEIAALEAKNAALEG

4H3844-AA = target: T31, 4H3844-AA; settings: mean of both orientations
T31 chain: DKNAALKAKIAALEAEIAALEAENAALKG

4H3921-AA = target: T32, 4H3921-AA
T32 chain: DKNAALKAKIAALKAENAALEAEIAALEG

4H406-AA = target: T33, 4H406-AA; settings: mean of both orientations
T33 chain: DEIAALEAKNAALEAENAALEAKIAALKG

4H429-AA = target: T34, 4H429-AA; settings: mean of both orientations
T34 chain: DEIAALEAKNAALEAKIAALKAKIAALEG

4H452-AA = target: T35, 4H452-AA; settings: mean of both orientations
T35 chain: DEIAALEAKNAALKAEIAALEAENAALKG

4H454-AA = target: T36, 4H454-AA; settings: mean of both orientations
T36 chain: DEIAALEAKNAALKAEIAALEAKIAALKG

4H48-AA = target: T37, 4H48-AA; settings: mean of both orientations
T37 chain: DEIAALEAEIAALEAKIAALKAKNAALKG

4H56-AA = target: T38, 4H56-AA
T38 chain: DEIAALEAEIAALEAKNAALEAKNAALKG

4H566-AA = target: T39, 4H566-AA; settings: mean of both orientations
T39 chain: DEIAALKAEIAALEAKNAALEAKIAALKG

4H605-AA = target: T40, 4H605-AA; settings: mean of both orientations
T40 chain: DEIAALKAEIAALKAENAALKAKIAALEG

4H678-AA = target: T41, 4H678-AA; settings: mean of both orientations
T41 chain: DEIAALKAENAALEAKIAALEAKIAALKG

4H717-AA = target: T42, 4H717-AA; settings: mean of both orientations
T42 chain: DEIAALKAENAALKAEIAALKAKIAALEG

4H780-AA = target: T43, 4H780-AA; settings: mean of both orientations
T43 chain: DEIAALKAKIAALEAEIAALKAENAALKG

4H794-AA = target: T44, 4H794-AA; settings: mean of both orientations
T44 chain: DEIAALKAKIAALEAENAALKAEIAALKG

4H881-AA = target: T45, 4H881-AA; settings: mean of both orientations
T45 chain: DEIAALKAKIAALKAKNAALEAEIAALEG

4H906-AA = target: T46, 4H906-AA; settings: mean of both orientations
T46 chain: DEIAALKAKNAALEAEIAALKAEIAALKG

4H993-AA = target: T47, 4H993-AA; settings: mean of both orientations
T47 chain: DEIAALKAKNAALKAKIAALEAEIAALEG

4H_APH = target: T48, 4H_APH
T48 chain: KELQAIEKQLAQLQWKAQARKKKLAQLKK

4H_BCR = target: T49, 4H_BCR; settings: mean of both orientations
T49 chain: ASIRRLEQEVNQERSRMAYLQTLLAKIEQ

4H_GCN4 = target: 4H_GCN4
GCN2_T = settings: mean of both orientations

Chain of 4H_GCN4 (chain, as listed by the source): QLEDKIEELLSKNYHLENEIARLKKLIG

interaction score (4H2466-AA): 1.31 | interaction score (4H249-AA): -1.42 | interaction score (4H2505-AA): -0.434 | interaction score (4H2575-AA): -1.2 | interaction score (4H2592-AA): -1.71 | interaction score (4H2617-AA): -1.65 | interaction score (4H2642-AA): -0.362 | interaction score (4H2729-AA): 0.493 | interaction score (4H2732-AA): -1.42 | interaction score (4H2754-AA): -0.538 | interaction score (4H2774-AA): -1.69 | interaction score (4H2837-AA): -1.28 | interaction score (4H2883-AA): -1.56 | interaction score (4H2931-AA): -1.81 | interaction score (4H2944-AA): -1.57 | interaction score (4H2949-AA): -0.713 | interaction score (4H3001-AA): -1.55 | interaction score (4H3015-AA): -1.65 | interaction score (4H3073-AA): -1.43 | interaction score (4H3112-AA): -1.92 | interaction score (4H317-AA): -1.82 | interaction score (4H3343-AA): -1.23 | interaction score (4H335-AA): -1.59 | interaction score (4H342-AA): -0.478 | interaction score (4H3427-AA): -1.39 | interaction score (4H3438-AA): -0.928 | interaction score (4H347-AA): -2.11 | interaction score (4H3606-AA): -1.47 | interaction score (4H3627-AA): -1.86 | interaction score (4H3655-AA): -1.35 | interaction score (4H3844-AA): -1.82 | interaction score (4H3921-AA): -1.23 | interaction score (4H406-AA): -1.25 | interaction score (4H429-AA): -0.101 | interaction score (4H452-AA): -1.37 | interaction score (4H454-AA): 0.993 | interaction score (4H48-AA): -1.11 | interaction score (4H56-AA): -2.04 | interaction score (4H566-AA): -1.51 | interaction score (4H605-AA): -1.38 | interaction score (4H678-AA): -0.158 | interaction score (4H717-AA): -1.06 | interaction score (4H780-AA): -1.2 | interaction score (4H794-AA): -1.43 | interaction score (4H881-AA): -2.04 | interaction score (4H906-AA): -1.22 | interaction score (4H993-AA): 0.55 | interaction score (4H_APH): -0.895 | interaction score (4H_BCR): -2.46 | interaction score (4H_GCN4): -1.67 | interaction score (GCN2_T): -1
Binder: DKIAALEAKNAALEAKIAALEAEIAALKG [4H2466-AA]
